Tests used:
[1] = molecular target: HXBc2; assay: ELISA
[2] = molecular target: gp41 MPER peptide (residues 657 to 669 of gp41) linked to a C-terminal C9 tag; assay: SPR

| Binder | EC50 [1] [µg/mL] | Kd [2] [nM] |
| --- | --- | --- |
| gHC+LC (antibody, V domains shown) VH: not shown VL: EIVLTQSPGTLSLSPGETAIISCRTSQYGSLAWYQQRPGQAPRLVIYSGSTRAAGIPDRFSGSRWGPDYNLTISNLESGDFGVYYCQQYEFFGQGTKVQVDI | 21.4 | – |
| 2F5 wild-type IgG (antibody, V domains shown) VH: RITLKESGPPLVKPTQTLTLTCSFSGFSLSDFGVGVGWIRQPPGKALEWLAIIYSDDDKRYSPSLNTRLTITKDTSKNQVVLVMTRVSPVDTATYFCAHRRGPTTLFGVPIARGPVNAMDVWGQGITVTISS VL: ALQLTQSPSSLSASVGDRITITCRASQGVTSALAWYRQKPGSPPQLLIYDASSLESGVPSRFSGSGSGTEFTLTISTLRPEDFATYYCQQLHFYPHTFGGGTRVDVRR | – | 9.5 |
| HC+gLC (antibody, V domains shown) VH: QVQLVQSGGQMKKPGESMRISCRASGYEFIDCTLNWIRLAPGKRPEWMGWLKPRGGAVNYARPLQGRVTMTRDVYSDTAFLELRSLTVDDTAVYFCTRGKNCDYNWDFEHWGRGTPVIVSS VL: EIVLTQSPATLSLSPGERATLSCRASQYSVSSYLAWYQQKPGQAPRLLIYDASNRATGIPARFSGSGSGRDFTLTISSLEPEDFAVYYCQQFGQGTKLEIK | 2.14 | – |
| gHC+gLC (antibody, V domains shown) VH: not shown VL: EIVLTQSPATLSLSPGERATLSCRASQYSVSSYLAWYQQKPGQAPRLLIYDASNRATGIPARFSGSGSGRDFTLTISSLEPEDFAVYYCQQFGQGTKLEIK | > 50 | – |
